Data on eight molecules can be found in patent US20160068835A1, “FLEXIBLE DISPLAY METHOD” (PEPTIDREAM INC., priority 2013, published 2016).

Experiment [1] addresses T1, human serum albumin (HSA) (Homo sapiens, UniProt P02768). Description: Bonding assay of chemically synthesized peptides by Bio-Layer Interferometry (BLI method). It counts as binding. Particulars: 50 mM Hepes-KOH pH 7.5, 300 mM NaCl, 0.05% Tween20, 0.001% DMSO, 30° C.; peptide 1-16 nM; FIG. 8. The protocol: (§1) Next, these peptides were chemically synthesized by Fmoc solid phase synthesis, and the bond to HSA was assessed using the Bio-Layer Interferometry method (BLI method). A bonding assay was performed under the condition of 50 mM Hepes-KOH pH 7.5, 300 mM NaCl, 0.05% Tween20 and 0.001% DMSO at 30° C. Each step of the assay consists of the bond reaction of peptide to HSA being 500 s, and the dissociation reaction being 500 s. The peptide solution was created by the following dilution series (p1: 16, 12, 8, 2, 1 nM, and p2: 16, 12, 8, 4 nM).
A general note: Biolayer interferometry detects binding as a change in optical thickness at a sensor tip.

Experiment [2] has as its target T1, human serum albumin (HSA). In words: Pull-down of peptides displayed as An21-type complexes with HSA-immobilized SA beads, recovered cDNA quantified by real-time PCR. Particulars: An21-type display complexes; HSA-immobilized SA beads vs SA beads free of HSA; FIG. 5e. Format: binding. As to the method: Derivative peptides having reverse and shuffled sequences of the selected peptides (p1 and p2) and the original peptide were prepared as the An21-type complexes. […] Furthermore, since the bonding activity to HSA is lost when the amino acid sequence of the obtained cyclic peptide is reconfigured (reversed or shuffled), it could be seen that the bond of peptide to HSA is sequence-dependent (FIG. 5e).
mRNAs of p1 and p2 were synthesized from the colony PCR product. The reverse or shuffled sequences of the mRNAs of the p1 and p2 peptides were prepared as follows. The DNA template was prepared using T7SD8M2.F44 as the forward primer, and SD8No38revG5S4.R69, SD8No38ranG5S4.R69, SD8No41revG5S4.R75 or SD8No41ranG5S4.R75 as the reverse primer. An elongation PCR and transcription were performed by a method similar to the method used in preparation of T7-mRNA. mRNA was purified by phenol/chloroform extraction and 2-propanole precipitation, and dissolved in ultrapure water.
Translation (2 μL), reverse transcription (4 μL), and the quenching reaction (5.25 μL) were performed by the above method.
2 μL of the obtained solution was mixed with HSA immobilized SA beads (0.3 pmol HSA) or SA-beads. After incubation at room temperature for 10 min., the beads were washed three times with 10 μL of HBST. […] The recovered cDNA was quantified with real-time PCR.
(Quantitative PCR measures a nucleic acid by following its amplification.)

The target of experiment [3] is T2, human serum albumin (human, UniProt P02768 25-609).
T2 construct: also called HSA
In words: pull-down of the An21-type display complex on HSA-immobilized SA beads, recovered cDNA quantified by real-time PCR. As to the method: Derivative peptides having reverse and shuffled sequences of the selected peptides (p1 and p2) and the original peptide were prepared as the An21-type complexes. The obtained complexes were subjected to pull-down using the HSA-immobilized SA beads and the SA beads free of HSA, and the recovered cDNA was quantified, which provided the result that p1 and p2 actually bond with HSA (FIG. 5e). Furthermore, since the bonding activity to HSA is lost when the amino acid sequence of the obtained cyclic peptide is reconfigured (reversed or shuffled), it could be seen that the bond of peptide to HSA is sequence-dependent (FIG. 5e).

The target in experiment [4] is T2, human serum albumin. In words: Bio-Layer Interferometry (BLI), synthetic peptide at 16, 12, 8, 2, 1 nM, 30 C. The protocol: as §1
For experiment [5], the target named is T2, human serum albumin. In words: Bio-Layer Interferometry (BLI), synthetic peptide at 16, 12, 8, 4 nM, 30 C. As to the method:
as §1

Where no end group is shown, it is not given here. [ ]: non-standard residue; d: D form. The star is where a group is joined. ClAB‑L‑Phe = N-[3-(2-chloroacetamido)benzoyl]-L-phenylalanine, O=C(CCl)Nc1cccc(C(=O)N[C@@H](Cc2ccccc2)C(=O)*)c1; puromycin = COc1ccc(C[C@H](N*)C(=O)N[C@H]2[C@@H](O)[C@H](n3cnc4c(N(C)C)ncnc43)O[C@@H]2CO)cc1; An21 Pu‑linker = not defined here

Regarding “XSQWDPWAIFWC ([ClAB‑L‑Phe]SQWDPWAIFWC; thioether (positions not given here); not fully specified (bridges)) [p2, X is ClAB-L-Phe, cyclized by thioether bond with Cys]”, in experiment [1], the “bond to HSA (BLI binding curve)” value is on record as “bond to HSA”. Besides, the “bond with HSA (recovered cDNA after pull-down)” value in experiment [2] was “actually bond with HSA”. For the molecule “XTYNERLFWC ([ClAB‑L‑Phe]TYNERLFWC; thioether (positions not given here); not fully specified (bridges)) [p1, X is ClAB-L-Phe, cyclized by thioether bond with Cys]”, the “bond to HSA (BLI binding curve)” value in experiment [1] is reported as “bond to HSA”. The “bond with HSA (recovered cDNA after pull-down)” value in experiment [2] is given as “actually bond with HSA”.

B1: Shuffled p2, displayed as An21-type complex (peptide)
peptide: [ClAB‑L‑Phe]DQSPWWWIAFCGGGGGS
modifications: thioether (positions not given here); not fully specified (C-terminus, bridges); also: C-terminal Pu-linker annealed to its mRNA/cDNA (display complex)
notes: also called No41ran
In the case of B1, in the experiment with human serum albumin [3], the binding result is reported as “no binding”.

B2: Shuffled p1, displayed as An21-type complex (peptide)
peptide: [ClAB‑L‑Phe]RFETLNWYCGGGGGS-{puromycin-An21 Pu‑linker}
modifications: thioether (positions not given here); not fully specified (bridges); reading uncertain; also: C-terminal Pu-linker annealed to its mRNA/cDNA (display complex)
notes: also called No38ran
Take B2: the binding result with human serum albumin [3] is on record as “no binding”.

B3: Reversed p1, displayed as An21-type complex (peptide)
peptide: [ClAB‑L‑Phe]WFLRENYTCGGGGGS-{puromycin-An21 Pu‑linker}
modifications: thioether (positions not given here); not fully specified (bridges); reading uncertain; also: Pu-linker annealed to its mRNA/cDNA (display complex)
notes: also called No38rev
For the molecule B3, the binding result with human serum albumin [3] is “no binding”.

B4: Reversed p2, displayed as An21-type complex (peptide)
peptide: [ClAB‑L‑Phe]WFIAWPDWQSCGGGGGS
modifications: thioether (positions not given here); not fully specified (C-terminus, bridges); also: Pu-linker annealed to its mRNA/cDNA (display complex)
notes: also called No41rev
On to B4, for which, in the experiment with human serum albumin [3], the binding result was “no binding”.

B5: p1: XTYNERLFWC (X is ClAB-L-Phe), chemically synthesized cyclic peptide (peptide)
peptide: [ClAB‑L‑Phe]TYNERLFWC
modifications: thioether (positions not given here); not fully specified (bridges)
notes: Made by Fmoc solid phase synthesis for the BLI assay; also called compound p1
As for B5, the binding result in the experiment with human serum albumin [4] was “binds”.

B6: p2: XSQWDPWAIFWC (X is ClAB-L-Phe), chemically synthesized cyclic peptide (peptide)
peptide: [ClAB‑L‑Phe]SQWDPWAIFWC
modifications: thioether (positions not given here); not fully specified (bridges)
notes: Made by Fmoc solid phase synthesis for the BLI assay; also called compound p2
For the molecule B6, the binding result with human serum albumin [5] is “binds”.
